Target: STAT3-NTD-YFP
Test: pair correlation of molecular brightness (pCOMB); pair correlation of brightness fluctuations along a 64-pixel confocal line scan from cytoplasm to nucleus of live HeLa cells; amplitude calibrated against free GFP, YFP or mCherry; cells stimulated with 10 nM oncostatin M for 15 min

Sequence of STAT3-NTD-YFP (domain or fragment) (P40763 2-770): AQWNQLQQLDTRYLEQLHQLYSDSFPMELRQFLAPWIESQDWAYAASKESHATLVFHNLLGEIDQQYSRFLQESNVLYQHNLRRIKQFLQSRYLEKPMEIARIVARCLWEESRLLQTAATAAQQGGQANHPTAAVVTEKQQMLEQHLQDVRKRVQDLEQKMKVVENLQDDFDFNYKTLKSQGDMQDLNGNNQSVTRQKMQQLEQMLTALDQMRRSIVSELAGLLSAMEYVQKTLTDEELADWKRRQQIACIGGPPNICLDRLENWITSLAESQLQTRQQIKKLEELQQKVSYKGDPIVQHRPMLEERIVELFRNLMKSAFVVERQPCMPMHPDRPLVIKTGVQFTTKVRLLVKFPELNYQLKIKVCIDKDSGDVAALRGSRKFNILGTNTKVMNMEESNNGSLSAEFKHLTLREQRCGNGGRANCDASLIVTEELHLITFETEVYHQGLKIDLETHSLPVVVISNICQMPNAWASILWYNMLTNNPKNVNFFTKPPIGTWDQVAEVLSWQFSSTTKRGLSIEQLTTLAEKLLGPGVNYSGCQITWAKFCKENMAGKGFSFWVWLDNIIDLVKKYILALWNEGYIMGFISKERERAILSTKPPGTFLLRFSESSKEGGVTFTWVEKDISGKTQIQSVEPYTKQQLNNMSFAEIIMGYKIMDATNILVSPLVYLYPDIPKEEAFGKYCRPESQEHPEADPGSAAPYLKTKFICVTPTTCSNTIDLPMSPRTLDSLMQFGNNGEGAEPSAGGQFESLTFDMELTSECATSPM

Substance: STAT3-NTD-YFP (domain or fragment)
- stoichiometry N: 2
